Experiment [1] has as its target human α-CGRP fragment 25-37 (human). The experiment in a line: Biacore, 25°C, Fab over biotinylated fragment (FIG. 1). Background: SPR reads the build-up and loss of mass on a sensor chip optically.
The target in experiment [2] is human α-CGRP K35A (19-37) (human). The experiment in a line: Biacore SPR, 25 °C, Fab flowed across peptide on SA chip; KD of alanine mutant relative to parent fragment 19-37.
In experiment [3] the target is human α-CGRP fragment 19-37 (human). Put plainly: Biacore SPR, 25 °C, Fab flowed across N-biotinylated peptide on SA chip; mean ± SD of two independent measurements on different chips.
Experiment [4] has as its target human α-CGRP fragment 25-37 (human). The description is as above.
Experiment [5] concerns the target human α-CGRP S34A (25-37) (human). The experiment in a line: Biacore SPR, 25 °C, Fab flowed across peptide on SA chip; KD of alanine mutant relative to parent fragment 25-37.
Experiment [6] deals with human α-CGRP P29A (25-37) (human). The experiment is described as above.
Experiment [7] concerns the target human α-CGRP V32A (25-37) (human). The description is as above.
Experiment [8] deals with human α-CGRP F27A (25-37) (human). Described as above.
The target of experiment [9] is human α-CGRP N31A (25-37) (human). The experiment is described as above.
Experiment [10] addresses human α-CGRP T30A (25-37) (human). The description is as above.
The target in experiment [11] is human α-CGRP G33A (25-37) (human). Described as above.
Experiment [12] concerns the target human α-CGRP V28A (25-37) (human). The experiment is described as above.
Experiment [13] has as its target human α-CGRP 1-37 (WT) (human). The experiment in a line: Biacore SPR, 25 °C, Fab flowed across N-biotinylated peptide on SA chip.
Experiment [14] deals with human α-CGRP 1-37 (WT) (human). Put plainly: Biacore, 25°C, Fab over biotinylated CGRP on SA chip.
human α-CGRP 1-37 (WT) (human), sequence (peptide, as listed by the source): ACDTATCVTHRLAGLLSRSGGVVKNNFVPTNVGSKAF
The next experiment has as its target rat α-CGRP (1-37) (rat). The experiment in a line: Biacore, 37°C, Fab over biotinylated CGRP on SA chip.
For experiment [15], the target named is human α-CGRP 1-37 (WT) (human). The experiment is described as above.

rat α-CGRP (1-37) (rat), sequence (peptide, as listed by the source): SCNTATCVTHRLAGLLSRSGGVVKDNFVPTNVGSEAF

The substance anti-CGRP antibody 4901, Fab fragment came in with a fold lower affinity than to full length human α-CGRP in [1] of 6 fold. The KD(mutant/parent) in experiment [2] was 0.3; in experiment [5] it was 0.8; in [6], 0.2; in experiment [7], 0.9; in experiment [8], 0.8; in experiment [9], 0.3. Also, the KD(mutant/parent) was 0.2 in experiment [10], 1.3 in experiment [11] and 0.8 in [12]. Moreover, the equilibrium dissociation constant (Kd) (in general, the constant that tells how readily two partners part at equilibrium) in experiment [3] stood at 52 nM; in experiment [4], 296 nM; in experiment [13], 60.5 nM; in experiment [14] it was 61 nM; with rat α-CGRP (1-37) (rat) it was 3.4 nM; in experiment [15], 139 nM.

The values are drawn from patent US20190071490A1, “Preventing Post-Ictal Headaches” (Beth Israel Deaconess Medical Center, Inc., priority 2017, published 2019).
